Source: patent publication US20240360224A1 (ORIONIS BIOSCIENCES, published 2024)

Molecular target: T1, human Clec9A (human, UniProt Q6UXN8 1-241)
T1 construct: Expressed on transfected CHO-K1, HEK293-T and HL116 cells, or native on human dendritic cells; also called hClec9A; C-type lectin domain family 9 member A
Test: flow cytometry on HEK293-T cells transfected with human Clec9A; His-tagged VHH at 2 µg/ml, anti-His FITC antibody; single concentration
Experimental: The binding characteristics of various VHHs (as described in Example 1) were tested by flow cytometry. HEK293-T cells were transfected with a human Clec9A expression plasmid and stained with the His-tagged VHHs at 2 μg/ml, followed by staining with an anti-His Fitc conjugated antibody. Binding was measured by detecting cellular fluorescence via flow cytometry.

T1 sequence (Q6UXN8 whole entry, the tested form may be a part): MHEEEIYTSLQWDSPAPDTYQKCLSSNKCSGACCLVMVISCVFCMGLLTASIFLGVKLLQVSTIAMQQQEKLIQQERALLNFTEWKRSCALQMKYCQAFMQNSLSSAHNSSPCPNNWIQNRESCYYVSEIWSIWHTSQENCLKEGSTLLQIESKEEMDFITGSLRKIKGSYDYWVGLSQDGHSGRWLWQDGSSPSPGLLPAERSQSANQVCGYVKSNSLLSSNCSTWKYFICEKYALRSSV

Row | Binder | binding result
1 | 1LEC 7 (VHH, Entry includes C-terminal AAA-HA-His6 (pMECS)) VHH: QVQLQESGGGLVQPGGSLRLSCAASGRISSINSMGWYRQAPGNQRELVAAITNGGAKTYADSVKGRFTISTDNAGNTVYLQMDSLRPEDTAVYYCKAFTRRDDYWGQGTQITVSS | binds
2 | 1LEC 42 (VHH, Entry includes C-terminal AAA-HA-His6 (pMECS)) VHH: QVQLQESGGGLVQPGGSLRLSCAASGRVFSINAMGWYRQAPGKQRELVAAITNQGATTYADSVKGRFTISRDTAGNTVYLQMNSLRPEDTAVHYCKAFTRTDDYWGQGTQVTVSS | binds
3 | 2LEC 38 (VHH, Entry includes C-terminal AAA-HA-His6 (pMECS)) VHH: QVQLQESGGGLVQPGGSLRLSCAASGRIFDINAMGWYRQAPGKQRELVAAITNGGQTTYADSVKGRFTISRDNAGNTVYLQMNSLRPEDTAVYYCKAFTRSDDYWGQGTQVTVSS | binds
4 | 2LEC 68 (VHH, Entry includes C-terminal AAA-HA-His6 (pMECS)) VHH: QVQLQESGGGLVQPGESLRLSCAASGSIFSINAMGWYRQAPGKQRELVAAITDGGAKTYADSVKGRFTISTDNAGNTVYLQMDSLRPEDTAVYYCKAFTRGNDYWGQGTQVTVSS | binds
5 | 3LEC 36 (VHH, Entry includes C-terminal AAA-HA-His6 (pMECS)) VHH: QVQLQESGGGLVQPGGSLRLSCAASGRIGSINSMGWYRQAPGKQREMVAAITNGGATVYADSVKGRFTISRDNAGNTVDLHMNSLRPEDSAVYYCKAFTRGDDYWGQGTQVTVSS | binds
6 | 3LEC 57 (VHH, Entry includes C-terminal AAA-HA-His6 (pMECS)) VHH: QVQLQESGGGLVQPGGSLRLSCAASGRISSINSMGWYRQAPGKQRELVAAITNGGAKTYADSVKGRFTISRDGAGNTVYLQMDNLRPEDTAVYYCKAFTRTYDYWGQGTQVTVSS | binds
7 | 1LEC 62 (VHH, Entry includes C-terminal AAA-HA-His6 (pMECS)) VHH: QVQLQESGGGLVQPGGFLSLSCAASGSMHSVNSMAWYRQVPGKQRELVAAITSGGRLAYAPSVNGRFTISRDYAKNTIHLQMNSLEPEDTAVYYCAALNSATTYWGQGTQVTVSS | binds
8 | 2LEC 93 (VHH, Entry includes C-terminal AAA-HA-His6 (pMECS)) VHH: QVQLQESGGGLVQAGGSLRLSCAASGSIFSINAMGWYRPALGEQRELVAAITTGGRTTYVDSVKGRFSISRDNAKNTVYLQMNSLKPEDTAVYFCKAFTRDEDFWGQGTQVTVSS | binds
9 | 1LEC 30 (VHH, Entry includes C-terminal AAA-HA-His6 (pMECS)) VHH: QVQLQESGGGLVQAGGSLRLSCAASGSILSINSMGWYRPALGNQRELVAAITNDGRTTYVDSVKGRFTISRDNAKNTVYLQMNSLKPEDTAVYWCKAFTRDKDYWGQGTQVTVSS | binds
10 | 1LEC 63 (VHH, Entry includes C-terminal AAA-HA-His6 (pMECS)) VHH: QVQLQESGGGLVQAGGSLRLSCAATGDISSINAMGWHRPARGNERELVAAITNGGRTTYVDSVKGRFTISRDNAKNTVYLQMNSLKPEDTAVYFCKAYTRDEDYWGQGTQVTVSS | binds
11 | 2LEC 53 (VHH, Entry includes C-terminal AAA-HA-His6 (pMECS)) VHH: QVQLQESGGGLVQAGGSLRLSCAASGSIDSINAMGWYRPALGEQRELVAAITTGGRTAYVDSVKGRFTISRDAAKNTVYLQMNSLKPEDTAVYSCKAFTRDTDYWGQGTQVTVSS | binds
12 | 1LEC 70 (VHH, Entry includes C-terminal AAA-HA-His6 (pMECS)) VHH: QVQLQESGGGLVQPGGSLRLSCAASGSIFSINAMGWYRQAPGKQRELVAAITNQGRLTYADSVKGRFTISRDNAKNTVFLQMDSLKPEDTAVYYCNAKWYDPLVIEYYDNWGQGTQVTVSS | binds
13 | 1LEC 84 (VHH, Entry includes C-terminal AAA-HA-His6 (pMECS)) VHH: QVQLQESGGGLVQPGGSLRLSCAASGSIFSIAAMGWYRQAPGKQRELVAAITSGGRRAYADSVKGRFTISRDNDENTVALQMNSLKPEDTDVYYCNAKADHNDYWGQGTQITVSS | binds
14 | 1LEC 88 (VHH, Entry includes C-terminal AAA-HA-His6 (pMECS)) VHH: QVQLQESGGGLVQPGGSLRLSCAAIGNIASITAMGWYRQAPGKQRELVAAITSASASRTTYADSVKGRFTISRDNAKNTVYLQMNSLQPEDTAVYYCKGFRSGADDYWGQGTQVTVSS | binds
15 | 1LEC 91 (VHH, Entry includes C-terminal AAA-HA-His6 (pMECS)) VHH: QVQLQESGGGLVQPGGSLRLSCAASGFTFDDYAIGWFRQAPGKEHEGVSCISRSDGSTYYDDSVKGRFTISSDNAKNTVYLQMNSLKPEDTAVYYCAAEVPSTYSCSGFREDYKGKGTQVTVSS | binds
16 | 3LEC 11 (VHH, Entry includes C-terminal AAA-HA-His6 (pMECS)) VHH: QVQLQESGGGLVQPGGSLRLSCAASGSISSINAMGWYRQAPGKQRELVAAITGQGRTTYADSVKGRFTISRDGAKNTVYLQMNSLKPEDTAVYYCKVFAADGMEYWGKGTQVTVSS | binds
17 | 1LEC 92 (VHH, Entry includes C-terminal AAA-HA-His6 (pMECS)) VHH: QVQLQESGGGLVQPGGSLRLSCAASGSISSINAMGWYRQAPGNQRELVAAITNQGRVTYADSVKGRFTISRDGAKNTVYLQMNSLKPEDTAVYYCKVFAASGMEYWGKGTQVTVSS | binds
18 | 3LEC 69 (VHH, Entry includes C-terminal AAA-HA-His6 (pMECS)) VHH: QVQLQESGGGLVQPGGSPRLSCAASGRFFRVNAMGWYRQAPGKQRELVAAITNGGQTAYADSVKGRFTISRDSAKNTVYLQMNSLKSEDTAVYYCKVFAADGMEYWGKGTQVTVSS | binds
19 | 2LEC 6 (VHH, Entry includes C-terminal AAA-HA-His6 (pMECS)) VHH: QVQLQESGGGWVQPGGSLRLSCAATGSIVSINAIGWYRQAPGKQRELVASITNQGIRNYSTSVMGRFTISRDDVKNTVSLQMNSLKPEDSAVYYCKGFAGWGKEDYWGQGTQVTVSS | binds
20 | 2LEC 13 (VHH, Entry includes C-terminal AAA-HA-His6 (pMECS)) VHH: QVQLQESGGGLVQAGASLRLSCAASGSIFSINAMGWYRQAPGKQRELVAAITNQGRTTYADSVKGRFTISRDNAKNTVYLQMDSLEPEDTAIYYCKGFSPTGDYWGQGTQVTVSS | binds
21 | 3LEC 66 (VHH, Entry includes C-terminal AAA-HA-His6 (pMECS)) VHH: QVQLQESGGGLVQPGGSLRLSCAASRSFFSFNAMGWYRQAPGKQRELVAAITNGGRIAYGTSVMGRFTISRDNAKNTVYLQMDSLKPEDTAVYYCNAKPAPVYGSTVGDYWGQGTQVTVSS | binds
22 | 1LEC 28 (VHH, Entry includes C-terminal AAA-HA-His6 (pMECS)) VHH: QVQLQESGGGLVQSGGSLRLSCAASGSVFSINAWGWYRQAPGKQRELVAAITNQGRIAYAPSVNGRFTISRDSAKNTVYLQMNSLKPEDTAVYYCNAKPTPVYGSTVGDYWGQGTQVTVSS | binds
23 | 2LEC 16 (VHH, Entry includes C-terminal AAA-HA-His6 (pMECS)) VHH: QVQLQESGGGLVQPGGSLRLSCLASRSFSSFNAMGWYRQAPGKERELVAAITNGGRIAYGIAVNGRFTISRDNAKNTVYLQMNSLKPEDTAVYYCNAKPTPVYGSTVGDYWGQGTQVTVSS | binds
24 | 2LEC 59 (VHH, Entry includes C-terminal AAA-HA-His6 (pMECS)) VHH: QVQLQESGGGLVQPGGSLRLSCAVSRNFFSINAMGWYRQAPGKQRELVAAITNGGRIAYGTSVMGRFTISRDDAKNTVDLQMNSLRPEDTAVYYCNAKAIPVYGSTVEDYWGQGTQVTVSS | binds
